Data: the DeepSol protein solubility set

Test: soluble on expression in E. coli; label from the status in PepcDB or PDB records

Soluble on expression in E. coli, not soluble:
MGSDKIHHHHHHMKYLVSIDGGGTKTKFCVSDLDGNILKEHTTGSTNYKSVGIKKTYENINNGFKKILKDLYIDYDDIEYTVFGISGCDSPNDYKIIMDEILKIGINKEKIYLANDAVLAFYAQADSPGLVIVAGTGSIILGIKEDGEIYRVGGWGYNFSDLGSGYDIGRKLLKKVLLYCDECHEYSDLFSCVLDFFGANSFEQLAYMITDINDNVEIANLASLVIDCAEQGDKLAIEILRESSTELSKLAQVILRKISNPMKMDKSEINIVLSGGTLNKTVYVQMLMNNLKTENTDKNLKFISQENQPVYGGIRLAMALANRRVKHG
IADVVPLDQNNRILAYQGLMRIRARHCRLGIIALAEVANRNVEQFTSSDLGFCIGPRLNAAGRLDNMSIGVELLLANEMSKARELALDLDQLNQTRKEIEAGMKLEAIKICQNLTALFKELPYGITLYQPDWHQGVLGIV
MGKTQEFLRLRRIIALSSLLASRKSAMCLAVLALHAIPGLPVLIAANRDEFHARPTAEATRWPGSPAIYAGRDLQAGGTWLGVSDQGRYAVVTNFRDPRNIQPDAPSRGALVEAFLRGAASAQEYLRDVHARGARYNGFNLIVGDAGGAWYCSNRDGAPQRLAAGVYALSNHLLDTPWPKLARTKAAFERIIAATPQPDLAALYAALADPTPAADHELPATGLALERERLLSSPFIVSPDYGTRSACILALHDDGRGELHERRFRPDGAIAGQADLDFPWRAARAELHRASCVLEHHHHHH
MGSDKIHHHHHHMDDGYIAEFALYRSLMKNLPWDTYQLFIDVARNGGLTGAVQSTGLSAATLGRRMVELEQKLGRILFHRAQTGYTLTVDGRALLDHLKSFEAAERGIDLWRQQTSQPALVRVTAGTWISWLIAQNLPKLCRSNDRFRLDLHITEERAALAHRETDIGIRAFEPQESNLARVPLGEVAYAAYRHRLADELEGQPWIAVAQDAAISAYLKWPHQHKAEQILITVNRPRSLKDMAVSGMGLAVLPCFVGDSHPQLQRVGDEITELRHRQWLVTNNDDRHRSEIRDCAGRLVTLMRDFSDAFAGRR
MSLGKRLKEARQKAGYTQKEAAEKLNIGNNNLSNYERDYRDPDTDTLLKLSNLYNVSTDYLLGKDEVSKKNETDLLNKTINEAIQELKDEDTLLFMNDGEFDEETARLVKKALKNGIKFIDELKKKE
MGSDKIHHHHHHMSFTSLPLTEINHKLPARNIIESQWITLQLTLFAQEQQAKRVSHAIVSSAYRKAEKIIRDAYRYQREQKVEQQQELACLRKNTLEKMEVEWLEQHVKHLQDDENQFRSLVDHAAHHIKNSIEQVLLAWFDQQSVDSVMCHRLARQATAMAEEGALYLRIHPEKEALMRETFGKRFTLIIEPGFSPDQAELSSTRYAVEFSLSRHFNALLKWLRNGEDKRGSDEY
HPGEVIVLIHGLMRTYVSMKPLKAYLEAQGYQVYLYKYPSARYNIQEHGVYLNQFITTILENNPAIKIHFVTHSLGGIIVREALSKLSQKQLKHVGYLIMLAPPNQGSKLAKFSIKLFPMISYFIKPLAELSSEQTSYVHRVPVPDIKMGIIAGRFDAKVPPDYARLQGQTEQVIINNTHTFIMYDSKVKKLVLSFLEKGKFE
MVKKAAATSKQATYHSDEIEMKEEVVLNTYDECTDYVEYDDTKQFDINEYCDQIQVAMVNESDDGMTLEFDITRIEAPIANALRRVLIAEVPTMALEKIYLYQNTSVIQDEVLCHRLGLLPLRVDPRGFQFPKEKVVGINEKGVDCDEEPEGDPAKNLIFKINVSCTKNRNAVPTATDPKQLYHNSSVYSRAFEWVPIADQKTQFTEEAHPRMVSDDILVAKLRPGQEIEASCHAVKGIGRDHAKFSPVATASYRLLPTIRLNAEISGEAAERLKSVFSEGVIAIEKKGAKRIAVVKDARKDTCSRNVFRHEDLSKVVQLGKNKQHFIFSVESTGALKSSELVVEACKVMEIKCRSLRKQIEALIQ

Soluble on expression in E. coli, soluble:
KPKSAVAPPGAPKKEHVNVVFIGHVDAGKSTIGGQIMYLTGMVDERTLEKYEREAKEKNRETWYLSWALDTNQEERDKGKTVEVGRAYFETEKKHFTILDAPGHKSFVPNMIGGASQADLAVLVISARKGEFETGFEKGGQTREHAMLAKTAGVKHLIVLINKMDDPTVNWSNERYEECKEKLVPFLKKVGFNPKKDIHFMPCSGLTGANLKEQSDFCPWYIGLPFIPYLDNLPNFNRSVDGPIRLPIVDKYKDMGTVVLGKLESGSICKGQQLVMMPNKHNVEVLGILSDDVETDSVAPGENLKIRLKGIEEEEILPGFILCDLNNLCHSGRTFDAQIVIIEHKSIICPGYNAVLHIHTCIEEVEITALICLVDKKSGEKSKTRPRFVKQDQVCIARLRTAGTICLETFKDFPQMGRFTLRDEGKTIAIGKVLKLVPEKD
MAHHHHHHMSTVEDFVLQALASTDAVESDKLAETLRVNHQDVVGAIKSLEADGYVVSEIKPKPTWKLTSEAENICESGSPEFLLWELLAGGAMTQEDIAEKFGKDVAAVAVANGMKAKIFALNKSEGKIIVTRSPSVSSFHDGIRVSLMRALKGEHVDPKEAETLKKRKLATLDNMKVFFVTKGPNYATQRRAKAVGDLTKEMLQDGSWKTAHFKEYNLGAAGREVGCGQLHPLLKVRQEFREIFMELGFREMETDRWVESSFWNFDALFIAQNHPARDVQDTFFVSKPSTHKLDHREVVDRVREMHEKNFNYTWKEEEARRNVLRTHTTCCSGYWLHHIAKSSPLLPNGRRDFCPGRYYSIDRVFRNEEMDRTHLCEFHQVEGCVIDRNISLSNMMHTFQLFFSRIGVEKLRFKPVFNPYTEPSMEIFGWHKQLKRWIEVGNSGLFRPEMLVPLGFDEDVTVMAWGLSLERPTMIKYGLSSIHELFGHKVDLRFIKQSKLMRF
MEAEKKKLSIPPKGIRAIIEAIRLGEIIKPSQYAKREAFKKHDVEEAWLNRVLTMIFYDIMKKQGLIDKVIKEIVGVTPLILDPWLRAALRVAVDIALFHDPSSQTIKNLRWKASDFISSRTHPYVGMYFWDLLDKIFEYKPNPKNELEELEWKYLAPSWLIERVKGILGDETEDFFRSVNKRHEWISIRVNTLKANVEEVIGELEEDGVEVVRSERVPTILKIKGPYNFDTSSAFNEGKIIVQEEASAVASIVLDPKPGETVVDLAAAPGGKTTHLAELMKNKGKIYAFDVDKMRMKRLKDFVKRMGIKIVKPLVKDARKAPEIIGEEVADKVLLDAPCTSSGTIGKNPELRWRLREDKINEMSQLQRELLESAARLVKPGGRLLYTTCSIFKEENEKNIRWFLNVHPEFKLVPLKSPYDPGFLEGTMRAWPHRHSTIGFFYALLEKSK
GEVASVPLTNYLDSQYFGKIYLGTPPQEFTVLFDTGSSDFWVPSIYCKSNACKNHQRFDPRKSSTFQNLGKPLSIHYGTGSMQGILGYDTVTVSNIVDIQQTVGLSTQEPGDVFTYAEFDGILGMAYPSLASEYSIPVFDNMMNRHLVAQDLFSVYMDRNGQESMLTLGAIDPSYYTGSLHWVPVTVQQYWQFTVDSVTISGVVVACEGGCQAILDTGTSKLVGPSSDILNIQQAIGATQNQYGEFDIDCDNLSYMPTVVFEINGKMYPLTPSAYTSQDQGFCTSGFQSENHSQKWILGDVFIREYYSVFDRANNLVGLAKAI
MNVVVERKNVRNVRIQVLADGKVRVVAPPDFDVDSFISKHADWIKKKRAEIESLAEEIKGKERMLLLNGKFYHLVKDSGFEIKEGEEVGVVKYYSLRNLKRNLASILREELKRNVSFYSRLLGINYGRIFIKMQKTKWASCSSKGNLSFNLASLALPEKLREYIVVHELVHLLEPKHSRLFWETVGFYYPEYEEAERELKKYWIFVERNEVWRMLRALK
MKFSALGDQAIIVTFGEEIKRDIYEKVQRLFQALQQHPFAGMIECVPSFTSLAVYYNVYEVWKGNERSERSHDYVRQYIKELCDSYKEEVKQDVKHISIPVCYGGEYGPDLEEVAHYHGLQVEDVIRIHSETTYFVYMLGFTPGFPYLGGLSKELETPRKETPRLQISPGSVGIGGNQTGIYPLETPGGWNIIGRTPISLFNPEEEIPTYIQSGMYLRFIPITKEEYVSLEGAKKWMLEHHHHHH
MTQPELTPAQRTEVELLARGRADKSRVLRDLKLPETPEAAHALLLRLGVWDEARTPYADRLRAALNAVELPVPDFDPAEERLDLTHLPTFAIDDEGNQDPDDAVGVEDLGGGLTRLWVHVADVAALVAPDSPLDLEARARGATLYLPDRTIGMLPDELVAKAGLGLHEVSPALSICLDLDPDGNAEAVDVLLTRVKVQRLAYQEAQARLEAGEEPFVTLARLARASRRLREGEGALSIDLPEVRVKADETGASVFPLPKPEMRTVVQECMTLAGWGTAIFADDNEIPLPFATQDYPTREVAGDTLPAMWARRKTLARTRFQPSPGPHHGMGLDLYAQATSPMRRYLDLVVHQQLRAFLAGRDPLSSKVMAAHIAESQMNADATRQAERLSRRHHTLRFIAAQPERVWDAVVVDRRGAQATLLIPDLAFDVQVNTPAAPGTALQVQFADIDLPQMRVRARSVLEHHHHHH
MHHHHHHSSGRENLYFQGPPARVRVAVRLRPFVDGTAGASDPPCVRGMDSCSLEIANWRNHQETLKYQFDAFYGERSTQQDIYAGSVQPILRHLLEGQNASVLAYGPTGAGKTHTMLGSPEQPGVIPRALMDLLQLTREEGAEGRPWALSVTMSYLEIYQEKVLDLLDPASGDLVIREDCRGNILIPGLSQKPISSFADFERHFLPASRNRTVGATRLNQRSSRSHAVLLVKVDQRERLAPFRQREGKLYLIDLAGSEDNRRTGNKGLRLKESGAINTSLFVLGKVVDALNQGLPRVPYRDSKLTRLLQDSLGGSAHSILIANIAPERRFYLDTVSALNFAARSKEVINRPFTNESLQPHALGPVKLSQKELLGPPEAK
MRAHTLSRQLREGNLFAEQCPSREVLKHVTSRWGVLILVALRDGTHRFSDLRRKMGGVSEKMLAQSLQALEQDGFLNRVSYPVVPPHVEYSLTPLGEQVSDKVAALADWIELNLPQVLAQRERLSDGG
MRMPASMEPDWKALLRVLRAHSATFYLGSLLFPKEARKGAWAVYAACRLGDEAVDGEGGGPEALEAWCSGVERAYRGRPLAEWEKGLAWALERWDIPFEAFLHMREGFQTDLGPVRLGTEAELLRYCYQVAGTVGRMMAPIAGGGKEAEARAVKLGQAMQLTNILRDVGEDLGRDRVYLPSELLKAYGVRLSDLEAGRITPEYRALMAHLEGKARALYREGLAGLGHLKVGRAAIALAALQYRGILDKLRLSGYDNLGRRAHLKAWERALLLPKAFLAARFPPRPEGSP
ANSKLTSDFDNPRWIGRHKHMFNFLDVNHNGKISLDEMVYKASDIVINNLGATPEQAKRHKDAVEAFFGGAGMKYGVETDWPAYIEGWKKLATDELEKYAKNEPTLIRIWGDALFDIVDKDQNGAITLDEWKAYTKAAGIIQSSEDCEETFRVCDIDESGQLDVDEMTRQHLGFWYTMDPACEKLYGGAVP
GEKVDFDDIQKKRQNKDLIELQALIDSHFEARRKEEEELVALKERIEKRRAERAE
SLAWHQRKHTQATPLRDIAADYTLQDFKLVALDTQTGKESLTLLGQQMQHNQTDSSAEVTAPLFMIPDQAGQHWTLQAQTGWINKDGTLLRLRHDVKGDSPTDLGQLPTTFRTQSLDIYPNHHLAKTTDAVTITHQGIIQTGVGFEVNTKTQQYKFNSKVNTRYEPSAAR
